Molecular target: human XPD, wild type (XPD-FLAG) (human, UniProt P18074 1-760)
Assay: cell-based or functional assay

in vitro transcription of TFIIH reconstituted from rIIH6, CAK and XPD, % of wild type: 100%
B1: human CDK activating kinase complex (CAK), wild type: MAT1 / CDK7-Strep / Cyclin H (complex)
chain 1: MDDQGCPRCKTTKYRNPSLKLMVNVCGHTLCESCVDLLFVRGAGNCPECGTPLRKSNFRVQLFEDPTVDKEVEIRKKVLKIYNKREEDFPSLREYNDFLEEVEEIVFNLTNNVDLDNTKKKMEIYQKENKDVIQKNKLKLTREQEELEEALEVERQENEQRRLFIQKEEQLQQILKRKNKQAFLDELESSDLPVALLLAQHKDRSTQLEMQLEKPKPVKPVTFSTGIKMGQHISLAPIHKLEEALYEYQPLQIETYGPHVPELEMLGRLGYLNHVRAASPQDLAGGYTSSLACHRALQDAFSGLFWQPS
chain 2: MALDVKSRAKRYEKLDFLGEGQFATVYKARDKNTNQIVAIKKIKLGHRSEAKDGINRTALREIKLLQELSHPNIIGLLDAFGHKSNISLVFDFMETDLEVIIKDNSLVLTPSHIKAYMLMTLQGLEYLHQHWILHRDLKPNNLLLDENGVLKLADFGLAKSFGSPNRAYTHQVVTRWYRAPELLFGARMYGVGVDMWAVGCILAELLLRVPFLPGDSDLDQLTRIFETLGTPTEEQWPDMCSLPDYVTFKSFPGIPLHHIFSAAGDDLLDLIQGLFLFNPCARITATQALKMKYFSNRPGPTPGCQLPRPNCPVETLKEQSNPALAIKRKRTEALEQGGLPKKLIF
chain 3: MYHNSSQKRHWTFSSEEQLARLRADANRKFRCKAVANGKVLPNDPVFLEPHEEMTLCKYYEKRLLEFCSVFKPAMPRSVVGTACMYFKRFYLNNSVMEYHPRIIMLTCAFLACKVDEFNVSSPQFVGNLRESPLGQEKALEQILEYELLLIQQLNFHLIVHNPYRPFEGFLIDLKTRYPILENPEILRKTADDFLNRIALTDAYLLYTPSQIALTAILSSASRAGITMESYLSESLMLKENRTCLSQLLDIMKSMRNLVKKYEPPRSEEVAVLKQKLERCHSAELALNVITKKRKGYEDDDYVSKKSKHEEEEWTDDDLVESL

Source: publication PMC7125077, “In TFIIH the Arch domain of XPD is mechanistically essential for transcription and DNA repair” (Nature Communications, 2020)
